Columns and labels:
[1] = biological target: GST-fused RasC (Dictyostelium) (UniProt P32253); test: pull-down; GFP-FRB/Kin^TOR with active GST-fused GTPase (GppNHp-loaded or constitutively active mutant), 25 ug of each, 50 mM Tris-Cl, 150 mM NaCl, 5 mM MgCl2, 1 mM beta-mercaptoethanol, pH 7.5; GSH resin; washes with 500 mM NaCl; GFP and GST immunoblotting
[2] = biological target: constitutively active RasC mutant (RasC^CA, G62L) (Dictyostelium) (UniProt P32253); test: as above
[3] = biological target: Rap1 pre-loaded with mGppNHp (GDI assay) (Dictyostelium) (UniProt P18613); test: guanine nucleotide dissociation inhibition (GDI) assay; Rap1 or RasG pre-loaded with fluorescent mGppNHp, excess unlabeled GppNHp, with or without 1 uM RIP3^RBD; kobs of fluorescence decay; without effector kobs Rap1 5.0 x 10^-5 s^-1, RasG 5.9 x 10^-5 s^-1
Chain of UniProt P18613 (P18613 whole entry): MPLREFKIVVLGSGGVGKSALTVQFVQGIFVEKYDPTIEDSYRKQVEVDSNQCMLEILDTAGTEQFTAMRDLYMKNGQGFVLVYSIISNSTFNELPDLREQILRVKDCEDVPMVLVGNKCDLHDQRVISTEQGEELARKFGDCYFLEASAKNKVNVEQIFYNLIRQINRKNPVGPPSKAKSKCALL

Row | binding efficiency (percent) [1] [%] | binding efficiency (percent) [2] [%] | kobs of mGppNHp dissociation from Rap1 with 1 uM RIP3^RBD [3] [s⁻¹] | Substance
1 | 9 | 9 |  | GFP-fused TOR catalytic domain (FRB/Kin^TOR, aa 1820-2380) (from UniProt Q86C65 1820-2380) (domain or fragment)
2 |  |  | 1e-07 | RIP3^RBD (aa 511-838) (domain or fragment)
